The target in data set [1] is T1, pSTAT3 (tyrosine-phosphorylated STAT3) (UniProt P40763 P40763:1-770). The experiment in a line: SPR; Langmuir 1:1, 4 C, 20 mM HEPES pH 7.0, 200 mM NaCl, 10 mM MgCl2. Conditions: tags: recombinant, immobilized on CM5 chip for SPR, chain copies: 2 inferred, hairpin, GAAA loop linking the strands. How it is done:
(§1) To more quantitatively assess the affinity of the decoy for pSTAT3 protein, the binding affinity by surface plasmon resonance (SPR) was determined. Solutions of STAT3 decoy were prepared at multiple concentrations and passed over recombinant tyrosine phosphorylated STAT3 immobilized in a sensor chip.
(§2) The amount of parent STAT3 decoy and modified STAT3 decoys bound to recombinant pSTAT3 increased directly with increasing concentrations of STAT3 decoy in test solutions. Data analysis by fitting the sensorgrams to a Langmuir 1:1 model of binding yielded kinetic and affinity values (Table 4).
(§3) To determine the specific binding affinities of the parent and the modified decoys (DN4 and DS18) to the pSTAT3 protein, surface plasmon resonance (SPR) analyses were performed using a BIAcore 3000 instrument (GE Healthcare, Piscataway, N.J.). All buffer and sample solutions were filtered and degassed prior to each run, with more optimal pH and instrument parameters determined empirically. The pSTAT3 protein at 10 μg/ml in 10 mM sodium acetate buffer (pH 4.0), was immobilized on freshly activated chip surface. […] Binding of STAT3 decoy, DN4 and DS18 to pSTAT3 protein were determined at several concentrations such as […] 0.625 μM, 1.25 μM, 2.5 μM 5.0 μM and 10.0 μM of analyte solutions, at a flow rate of 30 μL/min in a running buffer (20 mM HEPES, pH 7.0, 200 mM NaCl, 10 mM MgCl₂). […]
Background: SPR reads the build-up and loss of mass on a sensor chip optically.

The target of data set [2] is T2, STAT3 (UniProt P40763 P40763:1-770). The experiment in a line: EMSA. Conditions: chain copies: 2 inferred. (In EMSA bound probe runs differently from free probe, usually more slowly.)
For data set [3], the target named is T1, pSTAT3 (tyrosine-phosphorylated STAT3). The experiment in a line: SPR; Langmuir 1:1, 4 C, 20 mM HEPES pH 7.0, 200 mM NaCl, 10 mM MgCl2; replicate 1.15E-7 (Table 5A), 3.20E-7 (Table 5B); Table 3 1.29E-7 to 9.91E-7. Conditions: tags: recombinant, immobilized on CM5 chip for SPR, chain copies: 2 inferred. How it is done:
as §1, §2, §3

In data set [4] the target is T2, STAT3. Briefly: EMSA; longer sequence effective in blocking STAT3 activation. Conditions: chain copies: 2 inferred.

From patent US20120288536, “Stabilized Stat3 Decoy Oligonucleotides And Uses Therefor” (Carnegie Melton, published 2012) come the findings set out here.

By Kd is commonly meant the concentration at which binding is half-saturated.

T2 sequence (P40763 whole entry, one chain of several): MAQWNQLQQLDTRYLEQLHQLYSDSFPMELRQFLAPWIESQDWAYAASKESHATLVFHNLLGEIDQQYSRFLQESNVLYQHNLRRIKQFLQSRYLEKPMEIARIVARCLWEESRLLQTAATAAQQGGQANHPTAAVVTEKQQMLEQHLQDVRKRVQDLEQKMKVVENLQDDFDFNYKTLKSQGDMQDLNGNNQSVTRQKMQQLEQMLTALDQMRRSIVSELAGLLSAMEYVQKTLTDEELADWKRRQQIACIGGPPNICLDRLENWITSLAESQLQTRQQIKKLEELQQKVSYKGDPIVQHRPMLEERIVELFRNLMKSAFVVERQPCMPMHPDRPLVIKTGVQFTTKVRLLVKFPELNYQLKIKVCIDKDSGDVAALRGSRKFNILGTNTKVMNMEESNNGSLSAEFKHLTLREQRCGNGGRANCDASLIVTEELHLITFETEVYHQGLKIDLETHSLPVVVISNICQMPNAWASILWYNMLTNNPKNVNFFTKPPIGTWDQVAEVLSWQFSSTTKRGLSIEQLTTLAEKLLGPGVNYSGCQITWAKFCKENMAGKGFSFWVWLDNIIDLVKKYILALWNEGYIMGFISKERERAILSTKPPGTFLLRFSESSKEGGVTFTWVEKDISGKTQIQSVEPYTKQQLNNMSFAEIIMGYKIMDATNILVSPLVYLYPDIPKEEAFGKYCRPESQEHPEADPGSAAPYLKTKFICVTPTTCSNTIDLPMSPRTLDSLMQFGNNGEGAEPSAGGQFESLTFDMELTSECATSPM
T1 sequence (P40763 whole entry, one chain of several): as above

B1: DN4 (structured_DNA)
DNA: CATTTCCCGTAAATCGAAAGATTTACGGGAAATG
modifications: PS x3 at 5' end of one strand and 3' end of the other (Table 2: 5' and 3' ends of both strands)
On to B1, for which the Kd in data set [1] came to 182 nM.

B2: Mutant 3 (mutant control decoy) (dsDNA)
DNA 1: CATTTCCCTTAAATC
DNA 2: GATTTAAGGGAAATG
In the case of B2, in data set [2], the binding result is listed as “no binding”.

B3: STAT3 decoy (hSIE) (dsDNA)
DNA 1: CATTTCCCGTAAATC
DNA 2: GATTTACGGGAAATG
As for B3, the binding result in data set [2] was “binds”.

B4: parent STAT3 decoy (PTO) (dsDNA)
DNA 1: CATTTCCCGTAAATC
DNA 2: GATTTACGGGAAATG
modifications: PS first three and last three bases of both strands
In the case of B4, the Kd in data set [3] was determined as 122 nM.

B5: longer 31-mer hSIE duplex (dsDNA)
DNA 1: AGCTTGTCGACATTTCCCGTAAATCGTCGAG
DNA 2: CTCGACGATTTACGGGAAATGTCGACAAGCT
On to B5, for which, in data set [4], the binding result was “binds”.
